Measurements as given in the supplement of paper PMC9170038.

Test system: K4 kissing-loop RNA reporter
Assay: apparent KD of K4 kissing-loop reporter; higher = weaker reporter binding
Settings: Eterna round: R107; input ligand: FMN 200 uM
Method: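 RNA-MaP round R107: designed RNA switches with theophylline, tryptophan, arginine or FMN aptamers are transcribed on-chip within common flanks. They are titrated with a labelled K4 kissing-loop RNA reporter in RNA-MaP buffer (100 mM Tris pH 7.5, 80 mM KCl, 4 mM MgCl2), without ligand or with the indicated ligand. Median apparent KD per design.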
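Note: bound reporter read as fluorescence of individual clusters on recovered sequencing chips by microscopy, with normalized cluster intensities fitted with a binding model.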

Row | Sequence | apparent KD of K4 kissing-loop reporter [nM]
1 | GCAACAUUGGCAGGAUAUCCUUCUCAGUGAUGUUGAGGGUUCAGCUAACGAAAGUUAGUUGUACCAGGAGAAGGGCUAAUGUUGC [Omei KL FMN B SS A v7] | 416
2 | GUAGAUAGGCUACAUCUCUAGUCUAAACACUAGGAUAUCAGGAAACUGAGAAGGAGUGUCAUUGGAGUGAUGUUCCAAGAAUAAU [KL-SSFMN-A17] | 166
3 | GGCGUCUAAAAGUGCCUAGAGAGAAAGGAUACCAGCACCCGGCGGUGCCCUUGGCAGCCUAGCCCAGUGAUGUUGGGUCCUCUAA [Lasorian] | 380
4 | AAGUACACGAUAGUGUACACCUAGUGAUGUUAGGAUAUGCAGAUAUGCAGAAGGAACAAGUCAUCUGACAAUAGUCGGAUGACAA [FmnAX 6 #OpenEnded #K4Early] | 577
5 | UGCAGUGAUGUUGCGAGUGGCAGAUACGAAGGAGCGUGGUGAGACACAGGUAGGUCGCGUAUCGAAAUUGCUGUCACUAAAAUGC [#8] | 385
6 | UAAAAUAAAUAAUAGAGAUAAUUACUCGAAGGAGCGACGAAUUCGUCAGGUAGGUCGCGAGUGAUGUUCGCAAAUAUUAUCUCAU [AK3 Exc Arginine A] | 212
7 | CGUUUAUAGCAGGAUACCAGUACCCAUUAUGUACGUUUAUAGUAGAGUGAUGUUCUAAAGUACCCUUGGCAGCUUCCUGUGUCCC [ExTheophylB.Ab] | 163
8 | UAUCUAUGCUCGGCCGCCACUAGGACCGGGAUCUCUCUAGUGAUGUUAGUCUGAUCGGCCGCCACUAGGACCGGGAGUGUAGAUA [KL-SSTryp-B15 #DoubleAptamer] | 101
9 | CCCGUUGCGGCGGCCGCCACUGACUUAUUGAUUAGGUUGCCAGUGAUGUUGGCCACCGGUCAAUACAGGACCGGGCCAUAGCGGG [Ceisreatte] | 157
10 | CAGCGGAGUGAUGUUCUGCUUACUGCGGAUACCAGCUUCGCCAGAGGCCCUUGGCAGCCGGGCGGCUCAGUGAUGUUGGGUUGCU [Same State Theophylline A GF 15] | 536
11 | UCGCAAGAAUCACUGUGGAGGACCUUGGCCAAGGAUAUCAAAGGAUUGAGAAGGUGGCGCCAAGUGAUGUUUGGAUGCCGGGCAG [theeternabot_exclusion_KL_FMN_A_36] | 149
12 | AAAUUUAUAUUAGAUACCAGUUUAUUGGAUGUAAAUUAUGACAUGAGUGAUGUUCAUGUAAGCCCUUGGCAGCUGGUAUGGGUUU [KL-XTheo-B22] | 132
13 | CGAUAGGGAAGUCGAUUGCUCACUGGUAAACGAGGACCGGUACGGCCGCCACUCGGGUCCAGUGAUGUUGGACUUUGUGGCGGGC [Edladian] | 117
14 | ACAAUGAUCAAAGGAUAUCGUAAGUUAUACAUCACGCGAUGAUUCAGAGGCGAGUGAUGUUUGUCUCGAGAAGGUUGGUACCGUC [theeternabot_exclusion_KL_FMN_B_37] | 366
15 | UGAUAGGACAGAAGGAGCGGGAGUGAUGUUCCCAAAUGGAUAGGUCGACAAAGUCGACCCUCCCAGGUAGGUCGCUGUCCUAUCU [ArgBX 7 #SwitchBubble #StaticStem] | 206
16 | AUUUGUUUAUGUGAUACCAGACUAAGCAGUGAUGUUGCUUUUAUUUUUGAAUUUUAAAUAGUCCCUUGGCAGCACUAUGUCUGUA [#05 K4 Theophylline B Same State] | 96.4
17 | AAACAUCACUGGGAGUGAUGUUCUCAGUGACGAGGACCGGUACGGCCGCCACUCGCGAGAGAUUUAGUCUAGUCUUGACUGCAUU [Excl Tryptophan A V12] | 299

Row | Sequence | apparent KD of K4 kissing-loop reporter [nM]
18 | GAGGUACAGGCGGCCGCCACUAGUGAUGUUAGUGAUGUUAGAUAAAGUAUAUAUCGGCGUGUAGAUAGGACCGGGCCUGAUGGAG [ssrykmullin] | 49
19 | UACAUAUUAUUUAACAUAAAUUUUACAGAAGGAGCGUGAUCAUUCACAGGUAGGUCGCUGAACUAGUGAUGUUAGUUUUAUUUUU [JR_Nu_ExcArginiA_Sub025] | 62.7
20 | UGACUGGAUGGAAGGAGCGCUAAACUCCUAGUGAUGUUAGGGACAUGAGGCAUAGCCUUGAAGCAGGUAGGUCGCCAUCUAGUCU [FiskerMod 29 - Jieux - Same State - Arginine B] | 193
21 | AAGCAGUCACUCGCAGCCAUCGAAGAUGGUCGAGGACCGGUACGGCCGCCACUCGGAGUGAUGUUCCGAAGACUGCAAAAUAAAA | 281
22 | AAGACCUGCAUCGAUACCAGCCCAGUGAUGUUGGGCUGCUCUCCAUGGGUGCCAGACACGGGCCCUUGGCAGCGAGGUAGGGCCC [Zazadilabi] | 136
23 | CCGGCCCAGCCGGAUACCAGUGCGCCGCAGGGAACGGCGGGCCCAGAGUGAUGUUCGGGACACCCUUGGCAGCCGCCUGGGUCGC [#2 Same State - Theophylline B Attempt #27 (HarryS)] | 234
24 | AAUAAUGGAGUGAUGUUCCAGUAAUGGGAUACCAGACAUGAAAAUGUCCCUUGGCAGCUCAAAGGUCUAGUGAUGUUAUAAAGAA [KL-SSTheo-A6] | 475
25 | UGGAUAUAGUGAUGUUAUAUAGAGAGUGAUACCAGUUUAGAGAAGAACCCUUGGCAGCAUAAAGAAGUAUCAUUAGAGAAGAAUG [ExTheophyl.Ao] | 229
26 | AAGUUGAACUGAAGGAGCGAGAAAUAGAAUGUAAGAAUAUAUGCUAGUGAUGUUAGAAAUUCUCAGGUAGGUCGCAGUAAGAAUU [V1] | 368
27 | AUUUUUUACAGAAGGAGCGUGUUAUAAUAAUCAUAUUGCUUAGCGAGUGAUGUUCGCUUUACACAGGUAGGUCGCUGUUUAUUUA [JR_Nu_ExcArginiB_Sub029] | 167
28 | GGGUCAGCGCGAAGGAGCGCCCUGACAGGUUGCUGCCGUGGGCAGUGAUGUUGCUCAGUCCGGCAGGUAGGUCGCGUGCUGACCC | 202
29 | CGACUAGUCUUGCAACCCUAGUCGAUAUGCUAGGAUAUCAGGAAACUGAGAAGGAGUUUACUUGCAGUGAUGUUGCAAGAAUAAU [KL-SSFMN-A10] | 135
30 | CUAUAAGUGCCGAGUGAUGUUCGGCCAAUACGAGGACCGGUACGGCCGCCACUCGGUCAGUGGGUGCCCACCGGGCAUGGCUGAC [Cecezaa] | 174
31 | AGGUUUUGAUUAGGAUAUGCACUGAGGAGGAGAAUAUAGUGAUGUUAUAUAAGAGGAAUUAGUAGAGUAGAAGGGAUUGAGGUUU [SSFMNB.T] | 248
32 | AGAGAUAUAUGAGGAUAUGGGUUUGUUAAUGAGUUAGUUUUAGUGUUGUUUGGUUAGUGAUGUUAUUUAGAAGGCGUGAGUGAUG [aatrmullin] | 94.2
33 | UGUAUGUGAUUUGAUACCAGACCAGCUGGUGGAAACUGAGUGAUGUUCAGUUAGGUUUGGGUCCCUUGGCAGCAAAUCGCAUACU [KL-SSTheoB28] | 152

Same assay, conditions: Eterna round: R107; input ligand: arginine 13.2 mM

Row | Sequence | apparent KD of K4 kissing-loop reporter [nM]
34 | GCAACAUUGGCAGGAUAUCCUUCUCAGUGAUGUUGAGGGUUCAGCUAACGAAAGUUAGUUGUACCAGGAGAAGGGCUAAUGUUGC [Omei KL FMN B SS A v7] | 815
35 | GUAGAUAGGCUACAUCUCUAGUCUAAACACUAGGAUAUCAGGAAACUGAGAAGGAGUGUCAUUGGAGUGAUGUUCCAAGAAUAAU [KL-SSFMN-A17] | 195
36 | GGCGUCUAAAAGUGCCUAGAGAGAAAGGAUACCAGCACCCGGCGGUGCCCUUGGCAGCCUAGCCCAGUGAUGUUGGGUCCUCUAA [Lasorian] | 159
37 | AAGUACACGAUAGUGUACACCUAGUGAUGUUAGGAUAUGCAGAUAUGCAGAAGGAACAAGUCAUCUGACAAUAGUCGGAUGACAA [FmnAX 6 #OpenEnded #K4Early] | 75.5
38 | UGCAGUGAUGUUGCGAGUGGCAGAUACGAAGGAGCGUGGUGAGACACAGGUAGGUCGCGUAUCGAAAUUGCUGUCACUAAAAUGC [#8] | 411
39 | UAAAAUAAAUAAUAGAGAUAAUUACUCGAAGGAGCGACGAAUUCGUCAGGUAGGUCGCGAGUGAUGUUCGCAAAUAUUAUCUCAU [AK3 Exc Arginine A] | 328
40 | CGUUUAUAGCAGGAUACCAGUACCCAUUAUGUACGUUUAUAGUAGAGUGAUGUUCUAAAGUACCCUUGGCAGCUUCCUGUGUCCC [ExTheophylB.Ab] | 178
41 | UAUCUAUGCUCGGCCGCCACUAGGACCGGGAUCUCUCUAGUGAUGUUAGUCUGAUCGGCCGCCACUAGGACCGGGAGUGUAGAUA [KL-SSTryp-B15 #DoubleAptamer] | 88.7
